Results: publication PMC12505966, “Soluble MFGE8 mediates cell entry of Crimean-Congo hemorrhagic fever virus” (mBio, 2025)

Molecular target: T1, CCHFV Gc monomer (Gc10200 aa 1,041-1,579, Strep-Tag II) (Crimean-Congo hemorrhagic fever virus, …, UniProt Q8JSZ3 1041-1579)
T1 construct: also called Gc protein; recombinant Gc monomer
T1 sequence: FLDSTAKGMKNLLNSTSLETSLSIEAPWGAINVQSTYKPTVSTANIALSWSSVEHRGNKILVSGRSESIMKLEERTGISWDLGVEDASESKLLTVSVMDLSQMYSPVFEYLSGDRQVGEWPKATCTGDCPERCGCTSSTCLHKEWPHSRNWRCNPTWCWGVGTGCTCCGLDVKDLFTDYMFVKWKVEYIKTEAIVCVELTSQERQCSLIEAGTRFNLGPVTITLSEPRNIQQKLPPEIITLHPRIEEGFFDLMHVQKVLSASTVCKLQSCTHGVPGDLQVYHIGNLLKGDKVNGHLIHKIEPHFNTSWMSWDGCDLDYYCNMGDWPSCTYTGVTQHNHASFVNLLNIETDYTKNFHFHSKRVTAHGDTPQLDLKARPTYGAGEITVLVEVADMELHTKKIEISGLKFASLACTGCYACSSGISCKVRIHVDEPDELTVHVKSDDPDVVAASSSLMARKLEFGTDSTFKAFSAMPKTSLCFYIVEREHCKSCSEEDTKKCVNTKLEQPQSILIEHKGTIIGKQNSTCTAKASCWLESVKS
Assay: BLI; ForteBio Octet Red; […] (15 µg/mL) […]; PBS with 0.02% Tween 20 and 0.1% BSA; 1/1 binding model
Conditions: both partners purified

B1: Human recombinant MFGE8 protein with His tag at the C-terminus (natural protein, UniProt Q08431 24-387, looked up)
chain: LDICSKNPCHNGGLCEEISQEVRGDVFPSYTCTCLKGYAGNHCETKCVEPLGLENGNIANSQIAASSVRVTFLGLQHWVPELARLNRAGMVNAWTPSSNDDNPWIQVNLLRRMWVTGVVTQGASRLASHEYLKAFKVAYSLNGHEFDFIHDVNKKHKEFVGNWNKNAVHVNLFETPVEAQYVRLYPTSCHTACTLRFELLGCELNGCANPLGLKNNSIPDKQITASSSYKTWGLHLFSWNPSYARLDKQGNFNAWVAGSYGNDQWLQVDLGSSKEVTGIITQGARNFGSVQFVASYKVAYSNDSANWTEYQDPRTGSSKIFPGNWDNHSHKKNLFETPILARYVRILPVAWHNRIALRLELLGC
notes: also called milk fat globule-EGF factor 8 protein; lactadherin; not shown: His tag, C-terminal, kept
Kd: < 1 pM
